Laboratory results: the nanobody polyreactivity screen of Harvey et al. (2022)

Assay: yeast display, Sf9 membrane polyspecificity reagent, FACS + sequencing; frameworks hold sequencing errors
Procedure, shortened: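 Polyreactivity labels are assigned by the sorting gate from which each nanobody was recovered. The gates were low and high (top ~1%), set on anti-HA fluorescence for expression and streptavidin fluorescence for reagent binding. Before sorting, galactose-induced (36–48 hours) yeast display cells were stained for 1 hour at 4 °C with 10% biotinylated, detergent-solubilized Sf9 membrane reagent.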

Sequence	polyreactivity (PSR sort gate)
QVQLVESGGRIVQAGGSLRLSCDASGSTIFGNGMGWYRQAPGKERELVAAISGGGSTHYADSVKGRFTISRDNAKNTVYLQMNSVKPEDTAVYYCSPSRDTDGRGPIQRDFWGQGTQVTVSS	low polyreactivity
QFQLLESGGGLVQAGGSLRLSCAASGRTFSYNAMGWYRKAPGIERELVAAITGGTASTYYADSVKGRFTISRDNAKNPVYFQMNSLKPEETAVYYCNRASVFHYPWYYYWGQGTQVTVSS	high polyreactivity
QVQHVESGGGLVQAGGSLRLSCASSGFILEPYGMGWYRPAPGKERELVAAITSGASTYYADSVKGRFTISRDNAMNTVYLQMNILKPEDTAVYYCAVDPYSTYSEYDSWGQGTQVTVSS	low polyreactivity
QVQLVESGGGLVQAGGSLRLSCAASGSIFHGNAMGWYRQAPGKERELVAAITARGGRTYYADSVKGRFTISRDNAKNTVYLQMNSLKPEDTAVYYCNAVHRYERDYWGQGTQVTVSS	high polyreactivity
QVQLVESGGGLVQAGGSLRLSCAASGSIFHSYAMGWYRQAPGKERELVAGITSSCDRTNYADSVKGRFTISRDNAKITVYLQMNSLKPEDNAVYYCAAVARYPKGRTRRGYGYWGQGTQVTVSS	high polyreactivity
QVQLVESGGGLVQAGGSLRLSCAASGSTYYQYVMGWYRQAPGKEMELVAAISGSGGSTYYADSVKGRFTISRDNAKNTVYLQMNSLKPEDTAVYYCAARLRGRGRPPFGYWGQGTQLTVSS	high polyreactivity
QVQLVESGGGLFQAGGSLRLSSAASGIIFSTYAMGWYRQAHGKERELVAAITSTGSTNYADSVKGRFTISRDNAKNTVYLQMNSLKPEDTAVYYCAAEGHTAFLVYRVSPLQYDYWGQGTQVTVSS	low polyreactivity
QVQLVESGGGLVQAGGSLRLSCAASGSIFRYYVMGWYRQAPGKEREFVAAISYRGGSTYYADSVKGRFTISRDNAKNTVYLEMNSLKPEDTAVYFCYAVHYRSFWTPGSNDYWGQGTQVTVSS	high polyreactivity
QVQLVESGGGLVQAGGSLRLSCAASGSIFVGNAMGWYRQAPGKEREFVASISWDGTTYYADSVKGRFTISRDNAKNTVYLQMNSLKPEDTAVYYCAADVSTYGAQATEGTDLEYDYWGQGTLVTVSS	low polyreactivity
QVQLVESGGGLVQAGGSLRLSCAASGSIFKFYTMGWYRQAAGKEWELVATISRSGGGTFYADSVKGRFTISRDNAKNTVYLQMNSLKPEDTAVYYCAADPAFTHYPYGYGYWGQGTQVTVSS	low polyreactivity
QLQHVESGGCLVQAGASLRLSCAASRLIFFYYAMGWSRQAPGKERELVAAIRTNYADSVKGRITSSRDNAKNTVYLQMNSQKPEDTAVYYCAAESSQSPTSAFDYWGQGTQVTVSA	low polyreactivity
QVQLVESGGGLVQAGGSLRLSCAASGRLMGWYRQAPGKERELVAAIRVSSGSTYYADSVKGRFTISRDNAKNTVYLQMNSLKPEDTAVYYCAKYVYLGYVRQVPYFRYDYWGQGTQVTVSS	high polyreactivity
QVQLVESGGGLVQAGGSLRLSCAASGYIFVFNTMGWYRQAPGKERELVASISWDAGSTYYADSVKGRFTISRDNAKNTVYLQMNSLKPEDTAVDYCNAGRIRSGSPDYWGQGTQVTVSS	low polyreactivity
QVQLVESGGGLVQAGCSLRLSCAASGRIFYYNTMGWYRQAPGKERELVAAINFSGDRTYYADSVKGRFTISRDNAKNTVYLQMNSLKPEDTAVYYCAAQGYWYGYQPGNFWGQGTQVTVSS	high polyreactivity
QDQLVESGGGLVQAGGSLRLSCAASGLIFLYPMGGYRQAPGKERELVAAISNGGSTYYADSVKGRFTISRDNAKNTVYLQMNSLKPEDTAVYFCAAKGVRRRYRPDMYYWGQGTQVTVSS	high polyreactivity
QVQLVESGGGLVQAGGSLRLSCAASGRTFRYYAKGWYRPAPGTERELVADISSTGRTYYADSVKGRFTISRDNAKNTVYLQMNSLKPEDTAVYYCNADYFFEFDYWGQGTQVTVSS	low polyreactivity
QVQLVESGGGLVQAGGSLRLSCAASGSTFYINAMGWYRQAPGKERELVAAISWGGGSTYYADSVKGRFTISRDNAKNTVYLQMNSLKPEDTAVYYCAKLKGTQPNRYDYWGQGTQVTVSS	low polyreactivity
QVQLVESGGGLVQAGGSLRLSCAASGRTFWKYARGWYRQAPGKERELVAAISSSGGNTYYADSVKGRFTISRDNAKNTVYLQMNSLKPEDTAVYYCAARLPRGAYYYWGQGTQVTVSS	high polyreactivity
QVQLVESGGGLVQAGGSLRLSCAASGITFLNYAMGWYRQAPGKERELVAAISWSRGRTYYADSVKGRFTISRDNAKNTGYLQMNSLKPEDTAVYDCAADRGVNSYGYWGQGTQVTVSS	high polyreactivity
QVQLVESGGGLVQAGGSLRLSCAGSGSTFQRYGMGWYRQAPGKEREFVAAISTSGGITYYADSVKGRFTISRDNAKNTVYLQMNSLKPEDTAVYYCAARTARHVRYWAGWRDYWGQGTQVTVSS	high polyreactivity
QVQLVESGGGLVQAGGSLRLSCAASGSTFGVNAMGWYRQAPGKERELVAIITSTTYADSVKGRFTISRDNAKNTVYLQMNSLKPEDTAVYYCAKDQERVTKGRFYLLEYYWGQGTQVTVSS	low polyreactivity
QVQLVESGGGLVQAGGSLRLSCAASGFIFVRNTRGWYRQAPGKERELVATITRRGGSTSYADSVKGRFTISRDNAKNTVYLQMNSLKPEDTAVYYCNARSVYGSKQEEYWGQGTQVTVSS	high polyreactivity

Sequence	polyreactivity (PSR sort gate)
QVQLVESGGGLVQAGGSLRLSCAASGIIFLSYAMGWYRQAPGKERELVAAIRSRGDSTYYADSVKGRFTISRDNAKNTVYLQMNSLKAEDTAVYYCNARQRRYPYGYWGQGTQVTVSS	high polyreactivity
QVQLVESGGGLVQAGGSLRLSCAASGRTFLNYPMGWYRPAPGKERELVASISSSGARTYYADSVKGRFTISRDNAKNTVYLQMNSLKPEDTAVYFCAVTAGRGGYPQGGVTRGYWGQGTQVTVSS	high polyreactivity
QVQLVESGGGLVQAGGSLRLSCAASGNIFPRYAMGWYRQATGKERELVAAITWRTSSTYYADSVKGRFTISRDNAKNTVYLQMNSLKPEDTAVYYCAKTSSRIAGEYWGQGTQVTVSS	low polyreactivity
QVQIVESGGGLVQAGGSIRLSCAASGTTFNLYAMGWYRQAPGKERQLVAVISWSGGSTYYADSVKGRFTISRDNAKNTVYLQMNSLKPEDTAVYYCAAEYYQWLYPYNEYDYWGQGTQVTVSS	high polyreactivity
QVLLVESGGRLVQAGGSLRLSSAASGRTLNINAMGWYRQAPGKERELVAVISFNGGGTYYADSVKGRFTISRDNGKNTVYLQMNSLKPEDTAVYYCNAVRDRYASDYWGQGTQVTVTS	low polyreactivity
QVQLVESGGGLVQAGGSLRLSCAASGRILRWNAMGWYRQAPGKEREMVAAIDWRGGSTYYADSVKGRFTISRDNAKNTVYLQMNSLKPEDTAVYYCAVDYYPYEVSYVRMDYWGQGTQVTVSS	low polyreactivity
QVQLVESGGGLVQAGGSLRLSCAASGRTSQEYAMGWYRQAPGKERELVAGITRRGGTTYYADSVKGRFTISRDNAKNTVYLQMNRLNPEDTAVYYCAKRYTHSFKYEYWGQCTQVTVSS	high polyreactivity
QVQLVESGGGLVQAGGSLRLSCGASGGTFVSNAMGWYRQAPGKERELVAAITSGCNTTYADSVKGRFTISRDNAKNTVYLQMNSLKPEDTAVYYCATDFEGSWIDARGTWYYVWFGYWGQGTQVTVSS	low polyreactivity
QVHLVESGGGLVQAGGSLRLSCAASGSIFIVYTMGWYRQAPGKERELVAAISSGGITDYADSVKGRFTISRDNAKNTVYLQMNSLKPEDTAVYYWGQGTQVTVSS	low polyreactivity
QVQLVESGGGLVQAGGSLRLSCAASGRTILGNAMGWYRQAPGKEREFVATISKTGGSTYYADSVKGRFTISRDNAKNTVYLQMISLKPEDTAVYYCAVEIVSYVYGWLVDYDYWGQGTQVTVSS	low polyreactivity
QVQLVESGGGLVQAGGSLRLSCAASGSTYYNTMGWYRQAPGKEREFVAAITWSTGTTYYADSVKGRFTISRDNAKNTVYLQMNSLKPEDTAVYYCATDDSRDWLNYWGQGTQVTVSS	low polyreactivity
QVQLVESGGGLVQAGGSLRLSCAASGSTFEYNSMGWYRQAPGKERELVGSSTNYADSVKGRFTISRDNAKNTVYLQMNSLLPEYTAVYYCAREQGVNRNHDYWGQGTQVTVSS	low polyreactivity
QVQLVESGGGLVQAGGSLRLSCAASGSTLATYTMGWYRLAPGTVRELVGAISFGGSTYYADSVKGRFTISRDNAKNTVYLQMNSLKPVDTAVYYCAVDGDSYWGAYYYSDGYWGQGTQVTVSS	low polyreactivity
QVHLVESGGGLVQAGGSLRLSCAASGSIFVLYAMGWYRQAPGKERELVAAISRGVGGTNYADSVKGRFTISRDNAKNTVYLQMNSLKPEDTAVYYCAADWLWAWHYYGAMDYWGQGTQVTVSS	high polyreactivity
QVQLVESGGGLVQAGGSLRLSCAASGSTFTKYAMGWYRQEPGKDREFVAGINYSGGSTYYADSVKVRFTISRDNAKNTVYLLMKSLKPEDTAVYYCNARKQNRRGAKYDYWGQGTQVTVSS	high polyreactivity
QVQLVESGGGLVQAGGSLRLSCAASGRLFVYNAMGWYRQAPGKERELVASISWSGDSTYADSVKGRFTISRDNAKNTVYIQMNSLKPEDTAVYYCAAYSQADYQNMDYWGQGTQVTVSS	low polyreactivity
QVQLVESGAGLVQAGVSLRLSCAASGRIFVVNAMGRYRHAPGKERELVAAISRGGSTNYADSVKGPFTISRDNAKNTVYLQMNSLKPEDTAVYYCNADGSSYWYPVPLDGGDYWGQGTLVTVSS	low polyreactivity
QVQLVESGGGLVQAGGSLRLSCAASGLIFYINAMGWYRQAPGKERELVASITRTGSTNYADSVKGRFTISRDNAKNTVYLQMNSLKAEDTAVYYCAAYGPVYPHEYDYWGQGTQVTVSS	low polyreactivity
QVQLVESGGGIVQAGGSLRLSCAASGGTFNRYAMGWYRQAPGKERELVAAISNGGGRTYYADSVKGRFTISRDNAKNTVYLQMNSLKPEDNSVYYCAKDLTRTSYRSAFDYWGQGTQVTVSS	high polyreactivity
QVQLVESGGGLVQAGGSLRLSCAASGFIFQANAMGWYRQAPGKERELVAAIDDGDSTYADSVKGRFTISRDNAKNTVYLQMNSLKPEDTAVYYCATRRNRSYDYWGQGTQVTVSS	low polyreactivity
QDQLVESGGGLVQAGGRLRLSCAASGSIFLKYSMGWYRQAPGKVRELVAVISQSGGRTYYADSVKGRFTISRDNAKNTVYLQMNILKPEETAVYYCNVDISWLRRKFDYWGQGTQVTVSS	low polyreactivity
